B1: SEQ ID NO: 1: KRED polypeptide isolated from Bacillus sp, 248 amino acids, expressed recombinantly in Escherichia coli (protein, listed as Bacillus sp.)
chain: MSGRVAVITGAGSGIGRETCLTFARKGEKVVVADINEEKGLETTELVKAEGGEAVFVNTDVSKFEEVEALVDQAVETYGSIDIMFNNAGIGKMGHVLSLNIEDYLHVIDVNQHGVAYGIIAAGRKMRDLDIKGVIINSASVFGYLANFGTFPYQASKGAVRMMTQNAALELSQYGIRVVGIAPGSVDTSIIQAYKDAGMTQKMKEQQMRKELIRPEAIANAVYLLTLEEADVINGSVVMLDDGYASFK
B2: SEQ ID NO: 3: KRED polypeptide isolated from Weizmannia coagulans, 248 amino acids, expressed recombinantly in Escherichia coli (protein)
chain: MSGRVAVITGAGSGIGWETSLTFARKGDSVVVADIDEEKGLETVELIKQEGGDAVFAKTDVSKFEEVESLVNQAVEIYGTIDVMFNNAGIGTLGHILSKKIEDYLRVIDVNQHGVAYGIIAAGRKMRELDVKGVIINTASVFGYLANFGTFPYQAAKGAVRMMTQNAALELAQYGIRVVGIAPGCVDTPIIQAYKDAGMTQKMTEQQMRKKLIRPEAIANAVYLLTLEEADAINGSVVMLDDGYASFK
modifications: Weizmannia coagulans
notes: KRED polypeptide isolated from Weizmannia coagulans, 248 amino acids, expressed recombinantly in Escherichia coli

Key:
[1] = Characterization of oxidoreductases with regard to reduction of [6]-gingerol to the (3R,5S)-alcohol (HPLC); assay type: biochemical; details: recombinant E. coli enzyme suspension, NADH, 2-propanol, 25° C., 24 hours; for Ratio: 3S,5S/3R,5S (%) - 3R,5S share / Ratio: 3S,5S/3R,5S (%) - 3S,5S share: 2 mg [6]-gingerol; for Conversion (%): conversion of [6]-gingerol
Procedure: The oxidoreductases with the polypeptide sequences SEQ ID NO: 1 and SEQ ID NO: 3 were examined by the following method to determine the conversion rate and diasterioselectivity by reducing [6]-gingerol to the corresponding (3R, 5S)-alcohol:
Recombinant Escherichia coli cells which carry the genes of the oxidoreductases SEQ ID NO: 1 or SEQ ID NO: 3 were cultivated as described in Example 2. To produce an enzyme suspension, 1 g wet cells were completely resuspended with TEA buffer (100 mM triethanolamine pH 7.0, 2 mM MgCl2) in a total volume of 5 mL and then mixed until homogeneous by adding 5 mL glycerol solution (80% [v/v] in TEA buffer). In the reaction setup, 2 mg [6]-gingerol per […] of this enzyme suspension were added to 160 μL KPP buffer (100 mM potassium phosphate buffer, pH 7.5, 1 mM MgCl2), together with 0.0035 g NADH and 20 μL 2-propanol. After incubating the samples at 25° C. and 1200 rpm for 24 hours, the reaction solutions were extracted with 1 ml each of […] and centrifuged. 250 μL of the extract were removed and dried. Then 1 ml acetonitrile was added and analyzed by means of HPLC. A Luna PFP (2) column (150×3 mm) from Phenomenex (Germany) was used for detecting the conversion of [6]-gingerol and the diastereomers formed.

[2] = Determination of the enzyme activities for ethyl-2-oxo-4-phenylbutyrate with enzyme lysate (NADH absorption decrease at 340 nm); assay type: biochemical; details: enzyme lysate of recombinant RB791 cells, per wet cell mass; room temperature, pH 7.0, 0.3 mM NADH, 1 mM ethyl-2-oxo-4-phenylbutyrate; mean of at least three measurements
Procedure: Enzyme lysates (10% [w/v] and 20% [w/v] wet cell mass) were used to determine the enzyme activities. Enzyme lysates were prepared in TEA buffer (100 mM triethanolamine pH 7.0, 2 mM MgCl2). 0.1 g or 0.2 g wet cell mass was completely resuspended in 1 ml TEA buffer. The cells were disrupted in 2 ml reaction vessels by adding a 0.5 ml corresponding volume of glass beads at 24 Hz for 10 minutes in a vibrating mill (Retsch, MM200). The cell lysate was then sedimented in a tabletop centrifuge at 7500×g for 60 seconds. The cell-free supernatant, the enzyme lysate, was used immediately to determine the activity.
The activity was measured at room temperature in a reaction volume of 1 ml in a semi-micro cuvette (layer thickness 1 cm). The reaction mixture was composed as follows: 100 mM triethanolamine pH 7.0, 2 mM MgCl2, 0.3 mM NADH and 1 mM ethyl-2-oxo-4-phenylbutyrate (CAS No. 64920 29 2)
The reaction was started by adding 15 μL or 25 μL of enzyme lysate diluted in TEA buffer. The individual dilution was chosen for each enzyme lysate in such a way that a linear decrease in absorption at 340 nm could be recorded over a period of 30 seconds (UV-Vis spectrophotometer, Shimadzu). […] Each measurement was carried out at least three times and the mean values were determined. […] (SEQ ID NO: 1) or Weizmannia coagulans (SEQ ID NO: 3), respectively, enzyme activities of 1825 U/g and 71 U/g were determined.

Row | Molecule | Ratio: 3S,5S/3R,5S (%) - 3R,5S share [1] [%] | Ratio: 3S,5S/3R,5S (%) - 3S,5S share [1] [%] | Conversion (%) [1] [%] | enzyme activity [2] [U/g]
1 | B1 | 95.5 | 4.5 | >71 | 1825
2 | B2 | 98.6 | 1.4 | >84 | 71

— US20250275560A1, “PROCESS OF MAKING GINGEROL COMPOUNDS AND THEIR USE AS FLAVOR MODIFIERS” (Firmenich SA, priority 2021, published 2025)
